B1: MIA2 (parent)
chain: SVIEPVQESSFRSRKIAVEDENDL

Variants of: B1
Assay: protein stability index of a GFP-peptide fusion (GPS, HEK-293T) (PSI 1-6); higher = more stable
Conditions: c terminus: a fixed tail appended
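Also: lentivirally expressed fusions sorted by FACS into six bins by GFP to DsRed ratio, PSI derived from sequencing read proportions per bin multiplied by bin number.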

Protein stability index: each site, then its substitutions
N22: V 5.73, P 4.96, F 4.96, I 4.89, W 4.35, R 5.09, H 5.43, M 4.74, Y 4.53, E 5.08, D 5.84, G 5.04, A 5.47, Q 5.77, S 3.82, L 4.8, T 5.33, C 5, K 5.04
V18: L 4.56, D 4.18, A 5.35, C 5.03, W 5.16, N 5.1, H 5.36, T 4.94, P 5.32, R 5.72, S 5.69, Y 5.21, G 5.18, K 5.63, M 4.43, F 5.36, E 5.53, I 5.3, Q 5.15
R12: E 5.75, I 5.12, D 5.6, Q 5.44, M 5.41, T 5.46, K 5.42, P 6, S 5.94, V 5.36, A 5.81, Y 4.98, G 5.53, L 5.22, C 4.82, F 4.83, W 4.55, H 5.66, N 5.61
S10: Y 4.81, M 4.89, W 4.72, T 4.48, L 4.72, H 5.77, G 5.78, F 4.74, K 5.54, V 5.28, I 4.28, Q 5.67, N 5.28, P 5.02, R 5.02
I16: H 4.28, R 5.22, D 5.68, N 5.6, K 5.01, G 5.42, L 5.13, E 5.19, Q 5.15, W 4.66, F 5.12, V 5.41, T 5.37, A 4.72, C 4.17, P 5.04, Y 4.98, M 5.42, S 5.45
K15: M 5.11, Y 5.29, F 5.03, Q 5.71, H 5.36, S 5.61, I 5.05, T 5.11, N 5.67, D 5.52, R 5.43, A 5.63, C 5.2, W 4.44, E 5.69, G 4.85, L 5.14, P 5.65, V 5.43
E21: F 4.31, V 4.9, C 4.32, D 5.38, N 4.74, I 4.46, S 5.23, P 4.42, L 4.62, Q 5.29, K 5.05, R 4.7, A 4.83, H 4.63, T 5.19, M 4.32, W 3.85, Y 4.47, G 5.27
A17: V 5.3, K 5.59, E 5.68, D 5.43, Q 5.44, F 5.05, C 4.81, N 5.45, L 4.97, G 5.14, Y 4.87, M 5.55, S 4.86, R 4.77, I 5.05, P 5.66, T 5.09, W 4.92, H 5.53
L24: E 5.67, M 5.31, N 5.67, R 5.49, W 4.73, A 5.43, T 5.57, D 5.26, I 4.66, K 5.12, S 5.88, H 5, V 5.82, G 5.75, P 5.42, F 5.19, Y 4.92, Q 5.51, C 5.32

Reference: the supplement of paper PMC10567573
